In the nanobody polyreactivity screen of Harvey et al. (2022):

Assay: yeast display, Sf9 membrane polyspecificity reagent, FACS + sequencing; frameworks hold sequencing errors
Method in brief: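 After 36–48 hours of galactose induction, yeast (Saccharomyces cerevisiae BJ5465) displaying a synthetic nanobody library were stained at 4 °C for 1 hour with 10% biotinylated, detergent-solubilized Sf9 membrane reagent. Streptavidin microbeads enriched the stained cells before FACS sorting into low and high (top ~1%) gates on anti-HA and streptavidin fluorescence. Each clone's polyreactivity label reflects its gate of origin.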

Sequence	polyreactivity (PSR sort gate)
QVQLVESGGGLVQAGGSLRLSCAASGRTSYYYAMGWSRQAPGKERELVAAISRSGGRTYYADSVKGRFTISRDNAKNTVYLQMNSLKPEDTAVYYCAADPRSYDTGRMDYWGQGTQVTVSS	high polyreactivity
QVQLVESGGGLVQAGGSLRLSCAASGRTVAPYAMGWYRPAPGKERELVAGITYRTGNTYYADSVKGRFTISRDNAKNTVYLQMNSLKPEDTAVYYCAAYSGYYRPRYNFWGQGTQVNVSS	high polyreactivity
QVQLVESGGGLVQAGGSLRLSCAASGRTVGYNAMGWYRQAPGKERELVAAISRSGDSTYYADSVKGRFTISRDNAKNTVYLQMNSLKPEDTAVYYCATRYVTTGYDYWGQGTQVTVSS	low polyreactivity
QVQLVESGGGLVQAGGSLRLSCAASGRTVKPYAMGWYRQAPGKERELVAAISSGVSTHYADSVKGRFTISRDNAKNSVYLQMNSLKPEDTAVYYCDADDWVNYWFDYWGQGTQVTVSS	low polyreactivity
QVQLVESGGGLVQAGGSLRLSCAASGRTWFYAMGWYRQAPGKERELVAAISGSSGSTYYADSVKGRFTISRDNAKNTVYLQMNSLKPEDTAVYYCAADFWRFYYEYDYWGQGTQVTVSS	low polyreactivity
QVQLVESGGGLVQAGGSLRLSCAASGRTYAAYAMGWYRQAPGKERELVAAISIGGSTNYADSVKGRFTISRDNAKNTVYLLMNSLKPEDTAVYYCAAGTWAVSKYLEWLEFYYWGKGTQVTVSS	high polyreactivity
QVQLVESGGGLVQAGGSLRLSCAASGRTYFYNTMGWYRQAPGKESELVARITRGGSTYYADSVKGRFTISRDNAKNTVYLQMPSLKPEDTAFYYCAAGYWRGYFLYGFDYWGQGTQVTVSS	high polyreactivity
QVQLVESGGGLVQAGGSLRLSCAASGRTYHAYAMGWYRQAPGKGRELVAAITRTGTTHYADSVKGRFTISRDNAKNTVYLQMNSLKPEETAVYYCNKATQFYQWGASPYYPRRDYWGQGTQVTVSS	low polyreactivity
QVQLVESGGGLVQAGGSLRLSCAASGRTYRQNAMGWYRQAPGKEGELVAAISSSGTNTHYADSVKGRFTISRDNAKNTVYLQMTSLKPEDTAVYYCAADSWGARRKQYHENGYWGQGSQVTVSS	high polyreactivity
QVQLVESGGGLVQAGGSLRLSCAASGRTYSNAMGWYRQAPGKERELVAAITWSGGRTYYADSVKGRFTISRDNAKNTVYLQMNSLKPEDTAVYYCAADSIWWPLWFDYWGQGTQVTVSS	high polyreactivity
QVQLVESGGGLVQAGGSLRLSCAASGRTYTFYARGWYRQAPGKERELVAAITWGGGSTYYADSVKGRFTISRDNAKNTVYLQMNSLKPEDTAVYYCAAEWYEPVGSRWYSPYYYWGQGTQVTVSS	high polyreactivity
QVQLVESGGGLVQAGGSLRLSCAASGSARYAMGWYRQAPGKERELVAAISRRGGSTFYADSVKGRFTISRDNAMNTVYLQMNSLKPEDTAVYYCAADGRISYDYWGQGTQVTVSS	low polyreactivity
QVQLVESGGGLVQAGGSLRLSCAASGSFFASYSMGWYRQAPAKERELVAAITYSGSRTYYADSVKGRFTISRDNAKNTVYLQMNSLKPEDSAVYYCNADYYWYPYEDDYWGQGTQVTVSS	low polyreactivity
QVQLVESGGGLVQAGGSLRLSCAASGSIAGNAMGWYRQAPGKERELVAAITFRGSGTYYADSVKGRFTISRDNAKNTVYLQMNSLKPEDTAVDYCNAYRRGLSVYGYWGQGTQVTVSS	high polyreactivity
QVQLVESGGGLVQAGGSLRLSCAASGSIAMGWYRQAPGKERELVATISSSGGSTYYADSVKGRFTISRDNAKNTVYLQMNSLKPEDTAVYYCNTPQYLGPLYSEFDYWGQGTQVTVSS	low polyreactivity
QVQLVESGGGLVQAGGSLRLSCAASGSIAMGWYRQAPGKERELVATISSSGGSTYYADSVKGRFTISRDNAKNTVYLQMNSLKPEDTAVYYCNTQAVYGGGEGGYDYWGQGTQLTVSS	low polyreactivity

Sequence	polyreactivity (PSR sort gate)
QVQLVESGGGLVQAGGSLRLSCAASGSICERYAMGWYRQAPGKERELVAAISWRGTRTFYADSVKGRFTISRDNAKNTVYLQMNSLKPEDTAVYYCAADSRPPKYDYWGQGTQVTVSS	high polyreactivity
QVQLVESGGGLVQAGGSLRLSCAASGSICISYAMGWYRPAPGKERELVAAINYSGGSTYYADSVKGRFTISRDNAKNTVYLQMNSLKPDDTAVYYCAKRSTYRYYGYKLRDYWGQGTQVTVSS	low polyreactivity
QVQLVESGGGLVQAGGSLRLSCAASGSICRLYAMGWYRPARGKEREFVAGITRRTGSTYYADSVKWRFTISRDNAKNTVYLQMTSLKPEETAVYYCAKRDARATPFGYWGLGTQVTVSS	high polyreactivity
QVQLVESGGGLVQAGGSLRLSCAASGSICSLYAKGWYRQEPGKERELVAAISSSGTSTYYADSVKGRFTISRDNSKNTVYLQMNSLKLEDTAVYYCNAYRRRATYNGDYWGQGTQLTVSS	high polyreactivity
QVQLVESGGGLVQAGGSLRLSCAASGSICSSYAMGWYRQAPGKERELVAAISGSGGSTFYADSVKGRFTISRDNAKNTVYLQMNSLKPEDTAVYYCAARYYWYGRAGKKHASYYYWGQGTQVTVSS	high polyreactivity
QVQLVESGGGLVQAGGSLRLSCAASGSIDSKYTMGWYRQAPGKERELVAAIRGSGVRTYYADSVKGRFTISRDNAKNTVYLQMNSLKPEDTAVYYCAKVVYRGKVALWISSTAGSDYWGQGTQVTVSS	low polyreactivity
QVQLVESGGGLVQAGGSLRLSCAASGSIFAANAMGWYRQAPGKERELVADITRGDGTNYADSVKGRFTISRDNAKNTVYLQMNSLKPEDTAVYYCAAEPSQRYPWSGYDYWGQGTQVTVSS	low polyreactivity
QVQLVESGGGLVQAGGSLRLSCAASGSIFAANAMGWYRQATGKESELVAAISWSGGSTYADSVKGRFTISRDNAKNTVYLQMNSLKPEDTAVYYCNAFVYVGTGRGYDTLDYWGQGTQVTVSS	low polyreactivity
QVQLVESGGGLVQAGGSLRLSCAASGSIFAFNAMGWYRQAPGKERELVAAITRSGGRTFYADSVKGRFTISRDNAKNTVYLQMNSLKPEDTAVYYCAASEWRFSSYGGVKYYVEYDYWGQGTQVTVSS	high polyreactivity
QVQLVESGGGLVQAGGSLRLSCAASGSIFAFNAMGWYRQAPGKERELVAAITSGGNTYYADSVKGRFTISRDNAKNTVYLQMNSLKPEDTAVYYWATVFSVQGWYFGMNYWGQGTQVTVSS	low polyreactivity
QVQLVESGGGLVQAGGSLRLSCAASGSIFAFNAMGWYRQAPGKERELVAGITISDSTNYADSVKGRFTISRDNAKNTVYLQMNSLKPEDTAVYYCNADYEQYVYWYWFIKYDYWGQGTQVTVSS	low polyreactivity
QVQLVESGGGLVQAGGSLRLSCAASGSIFAGNAMGWYRQAPGKERELVAAITFSAGRTSYADSVKGRFTISRDNAKNTVYLQMNSLKPEDTAVYYCAARYRTDYYPEYDYWGQGTQVTVSS	low polyreactivity
QVQLVESGGGLVQAGGSLRLSCAASGSIFAGNAMGWYRQPPGKERELVASISWRGGSTYYADSVKGRFTISRDNAKKTVYLQMNSLKPEDTAVYYCNADLVLFPLTWPYYYWGQGTQVTVSS	low polyreactivity
QVQLVESGGGLVQAGGSLRLSCAASGSIFAGYAMGWYRQAPGKERELVAAISWSGGRTYYADSVKGRFTISRDNAKNTVYLQMNSLKPEDTAVYYCAALYIYRTYAALSRYDYWGQGTQVTVSS	high polyreactivity
QVQLVESGGGLVQAGGSLRLSCAASGSIFALNVMGWYRQAPGKEREFVAAISVRSGSTYYADSVKGRFTISRDNAKNTVYLQMNSLKPEDTAVYYCAARTSRFWRGGGLDYWGQGTQVTVSS	high polyreactivity
